Results from paper PMC4351431, “Pharmacokinetics of diluted (U20) insulin aspart compared with standard (U100) in children aged 3–6 years with type 1 diabetes during closed-loop insulin delivery: a randomised clinical trial” (Diabetologia, 2014).
Like-named read-outs stand apart in the source and are kept apart here.

Legend:
[1] = Insulin aspart pharmacokinetics during closed-loop insulin delivery, two-compartment modelling of plasma insulin; parameters: species or system human; settings: in vivo
Description: Children were admitted in the afternoon on two study visits, 2–6 weeks apart, at the Wellcome Trust Clinical Research Facility, Addenbrooke’s Hospital, Cambridge, to undergo closed-loop insulin delivery from 17:00 hours until 8:00 hours the following morning. On both occasions, the children consumed identical evening meals at 17:00 hours [44 ± 12 g carbohydrate] and optional bedtime snacks [6 ± 7 g carbohydrate]. Standard pump bolus calculators were used to calculate meal insulin boluses and basal rates on the insulin pump (Animas 2020, Johnson & Johnson, PA, USA) were adjusted every 15 min according to the output of a model predictive control algorithm informed by real-time continuous glucose monitoring values (Dexcom G4, Dexcom, CA, USA). Standard strength (100 U/ml) insulin aspart (Novo Nordisk, Bagsvaerd, Denmark) was infused at one visit and diluted aspart (0.9% saline [154 mmol/l NaCl] at 1:5 ratio, 20 U/ml) was administered at the other; the order of the two interventions was random. […]
Venous blood samples were taken at −30, 0, 30, 60, 90, 120, 180, 240, 300, 360, 420, 480, 540, 600, 660, 720, 780, 840 and 900 min relative to 17:00 hours for measuring the plasma insulin concentration. […] Plasma insulin was measured using an immunochemiluminometric assay (Invitron, Monmouth, UK; intra-assay CV 4.7%, interassay CV 7.2–8.1%; 100% cross reactivity with insulin aspart). Fasting C-peptide levels were measured at plasma glucose values above 6 mmol/l by ELISA (Mercodia, Uppsala, Sweden).
Aspart pharmacokinetics was assessed using a two-compartment model measuring the time-to-peak of plasma insulin concentration (t max), metabolic clearance rate of insulin (MCR I), and background plasma insulin concentration (ins c). […]
Differences between pharmacokinetic parameters were assessed by paired t test (for normally distributed variables) or the Wilcoxon signed-rank test (for non-normally distributed variables). […] The Spearman’s rank correlation evaluated correlations between pharmacokinetic and demographic indices. […]

[2] = cited from earlier work; for MCR I / ins c: published literature, closed-loop insulin delivery
From the text: Similar estimates of MCR I and ins c were also found in the current study and published literature (1.94 vs 1.68 × 10^−2 vs 1.90 × 10^−2 1/kg/min for MCR I, 29 vs 28 vs 61 pmol/l for ins c). In the present study, MCR I values in the two visits were highly correlated (r = 0.918, p < 0.001), as were the ins c values ...

[3] = parameters: method as in PMID 23278690; settings: pig, in vivo, sc; cited from earlier work

With B28Asp human insulin [insulin aspart] the “mean value of t max in the present study” value ([1]; human) was 60.4 min, the MCR I in the current study [1] was 19.4 mL/min/kg and the “ins c in the current study” value [1] was 29 pmol/L. The t max ([2]; adults with type 1 diabetes, during closed-loop insulin delivery) was 51 min, the t max ([2]; older children with type 1 diabetes, during closed-loop insulin delivery) was 66 min and the “MCR I” value ([2]; ref 7) was 0.0168 kg⁻¹ min⁻¹. The ins c ([2]; ref 7) was 28 pmol/L, the “MCR I” value ([2]; ref 8) was 0.019 kg⁻¹ min⁻¹ and the ins c ([2]; ref 8) was 61 pmol/L. The t max ([2]; type 1 diabetes, following insulin bolus injection) was 49 min and the “effect of concentration on insulin aspart pharmacokinetics” value [3] was “no significant difference between U200, U100 and U20”.
